In paper PMC7886694:

Legend:
His-PrpR = assay: BLI; conditions: 37 C, 200 mM KCl, 2 mM Mg2+, BLI: 10 mM HEPES pH 8.0, 2 mM MgCl2, 0.1 mM EDTA, 10 ug/ml BSA, 0.02% Tween-20 (running buffer), EMSA: 2 ng biotin probe in 10 uL, Beyotime …
[1] = test system: His-GlnR (Mycobacterium smegmatis); assay: BLI; conditions: 37 C, 200 mM KCl, 2 mM Mg2+, BLI: 10 mM HEPES pH 8.0, 2 mM MgCl2, 0.1 mM EDTA, 10 ug/ml BSA, 0.02% Tween-20 (running buffer), EMSA: 2 ng biotin probe in 10 uL, Beyotime …

## Picl (Msm icl promoter)
His-PrpR
  Kd: 171 nM
[1]
  Kd: 33.7 nM
